Measurements published in US20220017612A1.
Where two headings read alike, the source gives them in different places.

Legend:
[1] = target: fusion protein of a human IgG1 Fc domain and rat LAP-TGFβ1 (human; rat) (UniProt P17246); assay: SPR (Biacore T200), antigen-Fc captured, 1:1 model
[2] = target: fusion protein of a human IgG1 Fc domain and cynomolgus monkey LAP-TGFβ1 (human; cynomolgus monkey); assay: SPR (Biacore T200), antigen-Fc captured, 1:1 model
[3] = target: fusion protein of a human IgG1 Fc domain and human LAP-TGFβ1 (human) (UniProt P01137); assay: SPR (Biacore T200), antigen-Fc captured, 1:1 model
Sequence of fusion protein of a human IgG1 Fc domain and human LAP-TGFβ1 (human) (P01137 30-390 limits assumed): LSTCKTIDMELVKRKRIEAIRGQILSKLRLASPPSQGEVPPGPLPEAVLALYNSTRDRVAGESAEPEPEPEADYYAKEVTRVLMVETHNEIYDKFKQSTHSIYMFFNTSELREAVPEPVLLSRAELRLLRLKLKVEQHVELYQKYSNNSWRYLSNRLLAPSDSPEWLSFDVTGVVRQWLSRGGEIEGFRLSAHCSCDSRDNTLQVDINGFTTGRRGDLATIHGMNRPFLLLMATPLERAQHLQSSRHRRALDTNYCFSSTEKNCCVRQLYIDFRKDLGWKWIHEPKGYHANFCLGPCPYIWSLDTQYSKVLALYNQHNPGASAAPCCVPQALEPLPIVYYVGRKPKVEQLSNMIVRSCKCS

[4] = target: fusion protein of a human IgG1 Fc domain and mouse LAP-TGFβ1 (human; mouse) (UniProt P04202); assay: SPR (Biacore T200), antigen-Fc captured, 1:1 model
Sequence of fusion protein of a human IgG1 Fc domain and mouse LAP-TGFβ1 (human; mouse) (P04202 30-390 limits assumed): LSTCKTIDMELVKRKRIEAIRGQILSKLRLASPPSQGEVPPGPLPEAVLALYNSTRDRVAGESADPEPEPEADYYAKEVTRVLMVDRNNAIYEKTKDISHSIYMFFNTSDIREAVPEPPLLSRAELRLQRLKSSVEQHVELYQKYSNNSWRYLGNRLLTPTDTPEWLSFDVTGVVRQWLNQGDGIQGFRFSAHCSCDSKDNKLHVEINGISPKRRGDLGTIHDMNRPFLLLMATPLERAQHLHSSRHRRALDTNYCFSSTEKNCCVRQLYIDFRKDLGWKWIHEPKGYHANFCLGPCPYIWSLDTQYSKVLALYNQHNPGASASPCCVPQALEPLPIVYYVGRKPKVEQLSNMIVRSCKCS

[5] = target: fusion protein of a human IgG1 Fc domain and human LAP-TGFβ1 (human) (UniProt P01137); assay: SPR (Biacore T200), antigen-Fc captured, 1:1 model; remark: listed apart in the source
[6] = target: human-chicken LAP-TGFβ1 chimera #2 on HT1080 cells (human/chicken chimera); assay: flow cytometry, transduced HT1080 cells
Sequence of human-chicken LAP-TGFβ1 chimera #2 on HT1080 cells (human/chicken chimera) (chain, as listed by the source mutant limits assumed): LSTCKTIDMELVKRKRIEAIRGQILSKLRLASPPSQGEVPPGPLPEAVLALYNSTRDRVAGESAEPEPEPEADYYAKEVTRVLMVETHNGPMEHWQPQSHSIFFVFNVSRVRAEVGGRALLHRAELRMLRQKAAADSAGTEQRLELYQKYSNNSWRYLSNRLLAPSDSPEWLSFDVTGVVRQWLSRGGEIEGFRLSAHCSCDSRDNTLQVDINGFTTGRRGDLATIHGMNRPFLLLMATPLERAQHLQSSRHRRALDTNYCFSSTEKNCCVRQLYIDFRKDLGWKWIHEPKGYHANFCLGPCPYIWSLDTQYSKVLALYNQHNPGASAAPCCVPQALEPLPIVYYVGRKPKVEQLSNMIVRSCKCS

[7] = target: human-chicken LAP-TGFβ1 chimera #1 on HT1080 cells (human/chicken chimera); assay: flow cytometry, transduced HT1080 cells
Sequence of human-chicken LAP-TGFβ1 chimera #1 on HT1080 cells (human/chicken chimera) (chain, as listed by the source mutant limits assumed): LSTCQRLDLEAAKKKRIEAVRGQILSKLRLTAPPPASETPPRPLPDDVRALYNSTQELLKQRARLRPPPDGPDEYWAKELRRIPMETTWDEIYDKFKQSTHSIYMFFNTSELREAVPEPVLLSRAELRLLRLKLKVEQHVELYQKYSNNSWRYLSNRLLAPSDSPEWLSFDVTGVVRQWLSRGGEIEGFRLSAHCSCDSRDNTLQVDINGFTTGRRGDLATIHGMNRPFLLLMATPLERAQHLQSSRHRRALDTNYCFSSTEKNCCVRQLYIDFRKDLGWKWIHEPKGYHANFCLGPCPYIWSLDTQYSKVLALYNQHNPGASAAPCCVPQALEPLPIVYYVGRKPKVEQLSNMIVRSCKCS

Sequence of fusion protein of a human IgG1 Fc domain and rat LAP-TGFβ1 (human; rat) (P17246 30-390 limits assumed): as the sequence (P04202 30-390 limits assumed) above, with E93D, S99T, L131F, S134T, K202V counted along it

Kd [1] [nM] | koff [1] [s⁻¹] | kon [1] [M⁻¹ s⁻¹] | Kd [2] [nM] | koff [2] [s⁻¹] | kon [2] [M⁻¹ s⁻¹] | Kd [3] [nM] | koff [3] [s⁻¹] | kon [3] [M⁻¹ s⁻¹] | Kd [4] [nM] | koff [4] [s⁻¹] | kon [4] [M⁻¹ s⁻¹] | Kd [5] [nM] | koff [5] [s⁻¹] | kon [5] [M⁻¹ s⁻¹] | % GFP+/APC+ cells [6] [%] | % GFP+/APC+ cells [7] [%] | Binder
59.4 | 0.106 | 1.79e+06 | 60.3 | 0.095 | 1.58e+06 | 49.5 | 0.0939 | 1.91e+06 | 48.3 | 0.079 | 1.64e+06 | 40.8 | 0.08 | 1.96e+06 | – | – | humanized 20E6 F(ab′) binding protein (Fab, V domains shown) VH: EVQLVQSGAEVKKPGASVKVSCKASGYTFTSYWMHWVRQAPGQGLEWMGRIDPQSGGIKYAQKFQGRATLTVDTSTSTAYMELSRLRSDDTAVYYCARWDYGGYFDVWGQGTLVTVSS VL: DIQMTQSPSSLSASVGDRVTITCRASQDITNYLNWYQQKPGKAVKLLIYYTSRLHSGVPSRFSGSGSGTDYTLTISSLQPEDFATYFCQQGDTLPWTFGQGTKLEIKR
– | – | – | – | – | – | – | – | – | – | – | – | – | – | – | 0.2 | 0.2 | 28G11_(hyb) (antibody, mouse IgG2b, kappa, V domains shown) VH: EVKLVESGGGLVQPGGSLSLSCAASGFTFTDYYMSWVRQPPGKALEWLGFIRNKPNGYTTEYSASVKGRFTISRDNSQSILYLQMNVLRAEDSATYYCARYTGGGYFDYWGQGTTLTVSS VL: DIQMTQTTSSLSASLGDRLTISCRASQDISNYLNWYQQKPDGTVKLLIYYTSRLHSGVPSRFSGSGSGTDYSLTISNLEQADIATYFCQQGDTLPWTFGGGTKLEIKR
